Biological target: T1, Human CEACAM5 protein (human, UniProt P06731 35-702)
T1 sequence: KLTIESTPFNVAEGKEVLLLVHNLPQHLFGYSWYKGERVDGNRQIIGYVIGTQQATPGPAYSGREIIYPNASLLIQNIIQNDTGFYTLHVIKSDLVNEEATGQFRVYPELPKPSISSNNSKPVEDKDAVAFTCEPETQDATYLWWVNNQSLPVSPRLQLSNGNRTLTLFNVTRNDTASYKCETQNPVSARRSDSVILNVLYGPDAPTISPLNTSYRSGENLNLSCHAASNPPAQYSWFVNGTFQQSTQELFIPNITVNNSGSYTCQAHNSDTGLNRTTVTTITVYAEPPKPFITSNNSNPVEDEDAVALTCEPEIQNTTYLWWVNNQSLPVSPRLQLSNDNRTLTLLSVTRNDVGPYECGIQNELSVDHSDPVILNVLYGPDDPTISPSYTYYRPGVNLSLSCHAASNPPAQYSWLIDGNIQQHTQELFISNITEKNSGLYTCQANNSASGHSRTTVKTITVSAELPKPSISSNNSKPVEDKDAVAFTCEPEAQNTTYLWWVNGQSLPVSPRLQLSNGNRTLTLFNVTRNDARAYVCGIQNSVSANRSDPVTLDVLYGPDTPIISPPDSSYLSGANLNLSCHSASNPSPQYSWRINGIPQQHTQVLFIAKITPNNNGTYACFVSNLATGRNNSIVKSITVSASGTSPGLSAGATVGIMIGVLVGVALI
Experiment: cell-based or functional assay

SPECIFICITY FACTOR (IC50 in MDA-MB-231 divided by IC50 in MKN-45): 2.5 fold | SPECIFICITY FACTOR (IC50 in MDA-MB-231 divided by IC50 in SK-CO-1): 4.8 fold | SPECIFICITY FACTOR (IC50 in MDA-MB-231 divided by IC50 in SNU-16): 1.8 fold
B1: ADC8 (an analog of labetuzumab govitecan) (antibody, human IgG1, kappa)
heavy: not shown
light: DIQLTQSPSSLSASVGDRVTITCKASQDVGTSVAWYQQKPGKAPKLLIYWTSTRHTGVPSRFSGSGSGTDFTFTISSLQPEDIATYYCQQYSLYRSFGQGTKVEIKRTVAAPSVFIFPPSDEQLKSGTASVVCLLNNFYPREAKVQWKVDNALQSGNSQESVTEQDSKDSTYSLSSTLTLSKADYEKHKVYACEVTHQGLSSPVTKSFNRGEC
modifications: purchased drug-linker on reduced interchain cysteines; purchased drug-linker on reduced interchain cysteines, DAR of 7.7 for the whole antibody
